Data published in the supplement of paper PMC10126150.
± gives the standard deviation of the averaged measurements.

test system: ATP; test: switch fluorescence ratio, 500 uM ATP over buffer (Cy3 cluster intensity, sum of 5 cycles each) (fold (ratio)); higher = stronger signal-on switching upon ATP binding; sequences stand for … in TCGTCGGCAGCGTCAGATGTGTATAAGAGACAGTTTTTTTTTTTTTTTTTTTTTTTTT…TC; settings: aptamer strand: ATP DNA aptamer (quencher-CACCTGGGGGAGTATTGCGGAGGAAGG + anchor), 100 nM annealed; ATP concentration: 500 uM
In short: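 Between each of five buffer/ATP cycles, the flow-cell was stripped with NaOH and re-annealed. Each cycle imaged Cy3-labelled switching-strand clusters, annealed to 100 nM quencher-labelled ATP aptamer on a modified Illumina MiSeq flow-cell, first in selection buffer and then after 15 min with 500 uM ATP at 22 °C. The fluorescence ratio is summed target-cycle over summed buffer-cycle Cy3 intensity per cluster, averaged per switch-domain sequence, with clusters outside 100-1000 RFU excluded.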
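Also: ATP exposure 15 min at 22 °C before imaging.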

Sequence | switch fluorescence ratio
AACGGTAGGT | 1.01 ± 0.018
TACTCTGAAA | 2.38 ± 0.48
GATATGCTAT | 0.9915 ± 0.0066
CGTTTCAGAT | 1.02 ± 0.02
GCATGATGGC | 1.03 ± 0.063
TTGTTTAATC | 1.036 ± 0.0097
TAAGCATATG | 1.011 ± 0.0037
GTATCCTATA | 1 ± 0.017
TTGGCTTGGG | 1.01 ± 0.043
CCGTGTTTTT | 0.988 ± 0.032
GTAGCTATAT | 4.08 ± 0.14
GTTTCGAGTA | 0.957 ± 0.049
GCAGGAAGAC | 3.48 ± 0.81
CGACCTACAG | 1.02 ± 0.02
TACGTTTTCT | 1.02 ± 0.049
ATTTCGTGGG | 0.978 ± 0.023
AAGGGAGGGA | 1.01 ± 0.036
GTGTGGGTAT | 0.985 ± 0.016
TTCGGGTAAG | 0.987 ± 0.043
TTTCGTCCTT | 1.18 ± 0.014
GAAGAACGAA | 1.022 ± 0.004
ATGTTCGTTA | 1.0123 ± 0.00085

Sequence | switch fluorescence ratio
GTGTATCACG | 1.015 ± 0.0048
CCGTGAGGTG | 1.135 ± 0.01
CTATCCTATA | 0.988 ± 0.022
TTGGCGAGGA | 1.003 ± 0.0024
TATAATCATT | 0.985 ± 0.028
AGGTGGGGCT | 0.9811 ± 0.0089
TGAACGGGCC | 1.036 ± 0.00055
TTTATAAGTT | 0.986 ± 0.023
AAGGGTATAT | 0.9834 ± 0.0063
TAGGCCGCTG | 1.07 ± 0.15
TATGCATTAA | 1.01 ± 0.021
CTACTCCGTT | 1.29 ± 0.068
GATTAGAGGG | 0.9877 ± 0.0081
AACAATTATT | 1.04 ± 0.048
GGTGAACTTT | 0.964 ± 0.015
TCGCTAGATG | 1.4 ± 0.52
TCGTCCAAGT | 1.07 ± 0.066
GGAAGGTATG | 1.02 ± 0.071
GATGCAGTTC | 1.66 ± 0.053
TCACCTTATT | 1.03 ± 0.022
CGGGGGTGAG | 1.04 ± 0.13
GGTTGCGGCA | 1.01 ± 0.041

Sequence | switch fluorescence ratio
CCGGAGTGGA | 2.56 ± 1.3
TGCTCTAGGA | 1.001 ± 0.0042
ACACTAGGGG | 1.23 ± 0.17
TTCCCGTCAG | 1.022 ± 0.0017
GGGAATTCTA | 0.991 ± 0.021
AATCTCATAG | 1.01 ± 0.012
TACCGTTTGC | 1.19 ± 0.089
AGGGGATAAG | 0.992 ± 0.029
ATAGTATTTT | 0.995 ± 0.025
GATTTAATAG | 0.9625 ± 0.0076
CGTGGAGGTG | 1.07 ± 0.036
TCAGAATATT | 0.978 ± 0.023
TTTTGAAGTG | 1.02 ± 0.034
TTGGGGGCAA | 1.57 ± 0.84
GGGAGGGCTT | 1.05 ± 0.092
ATTCCTGGGG | 1.05 ± 0.012
TAGGGGCGAT | 1.01 ± 0.032
CTTGGGAATA | 1.01 ± 0.05
AGGTTAAAAT | 1.03 ± 0.024
TTTGTGGGGG | 1.01 ± 0.041
CGGCCAGGAA | 1.05 ± 0.024
ATTTTAATAG | 0.9909 ± 0.0056

Sequence | switch fluorescence ratio
TCTCTTGCGG | 1.1 ± 0.2
TTTGGTTAAT | 0.959 ± 0.027
CATTCATGGA | 1.03 ± 0.035
TTTACTGCTT | 0.981 ± 0.044
GCCCTTGGTT | 1.02 ± 0.074
AATCTGTTAT | 0.992 ± 0.033
AGGGTATGGG | 1.03 ± 0.058
GGGGAGGTTT | 0.966 ± 0.02
CTTAAATTAT | 0.9967 ± 0.0089
AATAGTCGGC | 1 ± 0.042
CCGGGCGATG | 1.6 ± 0.1
GGGAAACTTG | 0.988 ± 0.017
GAGTGAGTGG | 1.019 ± 0.0056
GTTTTGTTTG | 0.9553 ± 0.0016
TTGACTTTGG | 0.959 ± 0.02
CTATAGGAGA | 1.01 ± 0.044
TACTTATCTG | 1.01 ± 0.019
GAAGGGTAAC | 1.03 ± 0.018
TTAATTGATG | 1.01 ± 0.014
